This data set is described as follows: yeast display, Sf9 membrane polyspecificity reagent, FACS + sequencing; frameworks hold sequencing errors. The method in brief: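 Using colony PCR, genes from sorted yeast display clones were amplified, then sequenced on MiSeq at 2 × 250 and filtered by CDR length. The clones had been stained with 10% biotinylated, detergent-solubilized Sf9 membrane reagent for 1 hour at 4 °C and sorted by FACS into low and high (top ~1%) gates on anti-HA and streptavidin fluorescence. Polyreactivity labels come from the gate of origin.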
“QVQLVESGGGLVQAGGSLRLSCAASGLTFFYYAMGWYRQAPGKERELVAGISRSGGSTYYADSVKGRFTISRDNAKNTVYLQMKSLKPEDTAVYYCAKRTLVASYIYREGEYWGQGTQVTVSS”: the “polyreactivity (PSR sort gate)” value is recorded as “high polyreactivity”.

Take “QVQLVESGGGLVQAGGSLLLSCAASGGTFHYNAMGWYIQAPGKERELVAAITESGGRTYYADSVKGRFTISRDNAKNTVYLQMNSLKPEDTAVYYCNADQDSDAADRSAYWGQGSQVTVSS”: the “polyreactivity (PSR sort gate)” value is “low polyreactivity”. Turning to “QVQLVESGGGLAQAGGSLRLSCAASGLIFYYNAMGWYRQAPGKERELVAAISSSGGRTYYADSVKGRFTISRDNAKNTVYLQMNSLKPEDTAVYYCAATSYGYGSRYDYWGQGTQVTVSS”, the “polyreactivity (PSR sort gate)” value is recorded as “high polyreactivity”. For the sequence “QVQLVESGGGLVQAGGSLRLRCAASGSTLSNYAMGWYRQAPGKERELVAAITWSTGSTYYADSVKGRFTISRDNAKNSVYLQMNSLKPEDTAVYYCNAGSQYLLVGLYDYWGQGTQVTVSS”, the “polyreactivity (PSR sort gate)” value is listed as “low polyreactivity”.

Turning to “QVQLVESGGGLVQAGGSLRLSGAASGSIFSVYAMGWYRQAPGKERELVASISRSGGSTYYADSVKGRFTISRDNAKNTVYLQMNSLKPEDTAVYYCAAYHPIQEYDYWGQGTQVTVSS”, the “polyreactivity (PSR sort gate)” value was “high polyreactivity”.

As for “QVQLVESGGGLVQAGRSLRLSCAASGSIFYKYARGWYRQAPGKERELVAAISRSRGSTYYADSVKGRFTISRDNAKNTVYLQMNSLKPEDTAVYYCNAYYRYSFSELDKYGYWGQGTQVTVSS”, the “polyreactivity (PSR sort gate)” value is reported as “high polyreactivity”. Consider “QVQLEDSGRGLFQAGGSLRLSCAASGSIVALYTMGWYRQAPGKEREFVAGIRTGGSTIYADSVKGRFTISRDNAKNTVYLQMNSRKPEDTPVYYDDWGQGTQVTVSS”, for which the “polyreactivity (PSR sort gate)” value is given as “low polyreactivity”. In the case of “QVQLVESGGGLVQAGGSLRLSCAASGRILSWYAMGWYRQAPGKVRELVAAIDSGGRTNYADSVKGRFTISRDNAKNTVYLQMNSLKPEDTAVYYCAKEGYWPRYWERYDYWGQGTQVTLSS” it was “low polyreactivity”; in that of “QVQLVESGGGLVQAGGSLLLSCAASGRIFDRNAIGWYRQAPGKERELVAAINSVGTTYYADSVKGRFTISRDNAKNTVYLQMNSLKPEDTAVYYCAARSAYRRGYWGQGTQVTLSS”, “high polyreactivity”; in that of “QVQLVESVGGLVQAGGSLRLSCAASGRIFPVYAMGLYRQAPGKERELVAAISKRDGSTSYADSVKGRFTISRDNAKNTVYIQMNSLKPEDTAVYYCNARNHVQVLFRRDYWGQGTQVTVSS”, “low polyreactivity”. Take “QVQLVESGGGLVQAGGSLRLSCAASGSTFRPNAMGWYRQAPGTERELVAAITSGGSTYYADSVKGRFTISRDNAKNTVYLQMNRLKPEDTAVYYFNKDKFWSYPVQVNLDYWGQGTQVTVSS”: the “polyreactivity (PSR sort gate)” value was “low polyreactivity”. “QVQLVESGGGLVQAGGSLRLSCAASGFTFFSNAMGWYRQAPGKERELVASISASGSGTYYADSVKGRFTISRDNAKNTVYLQMNSLKPEDTAVYYCAAQYRVNARSGVYRGYRYNYWGQGTQVTVSS”: the “polyreactivity (PSR sort gate)” value is recorded as “high polyreactivity”.

On to “QVQLVESGGGLVQAVGSLRLSCAASGRTFQSYTMGWYRQAPGKEREFVAAFRDSGGSTYYADSVKGRFTISRDNAKNTVFLQMNSLKPEDTAVYYCAAYRPRKYDYWGQGTQVTVSS”, for which the “polyreactivity (PSR sort gate)” value was “high polyreactivity”. As for “QVQIVESGGAFVQAGGSLRLRCEASGSTFVNKDMGWSRPAPGKEREFVAAIRNTGGRTYYADSVKGRFTISRDNAKNSVYLQMNSLKPEDTAVYYCAAVSRVRTLWRMDYWGQGTQVTVSS”, the “polyreactivity (PSR sort gate)” value was “high polyreactivity”. With “QVQLVESGGGLVQAGGSLRLSCAASGYIFDKNAMGWYRQAPGKERELVAAITSSGGRTYYADSVKGRFTISRDNAKNTVYLQMNSLKPEDTAVYYCNKLYRTSGEYVYWGQGTQVTVSS”, the “polyreactivity (PSR sort gate)” value is given as “high polyreactivity”. In the case of “QVQLVESGGGLVQAGGSLRLSCAASGRIFYNYAMGWYRQAPGKETELVAAISGSGGSTYYADSVKGRFTISRDNAKNTVYLLMNSLKPEDTAVYYCSTSGQQYYSRNFDYWGQGTQVTVSS” it was “low polyreactivity”; in that of “QVQLVESGGGLDQAGGSLRLSCAASGTIFTFYTMGWYRQAPGKERELVAAINWSGSRTYYADSVKGRFTISRDNAKNTVYLQMNSLKPEDTAVYYCAAEHWFPSAPWYYSDLHYYWGQGTQVTVSS”, “high polyreactivity”. Take “QVQLVESGGGLVQAGGSLRLSCAASGSTFYLYAMGWYRQAPGKERELVAAISWSGGDKYYADSVKGRFTISRDNAKNTVYLQMNSLKPEDTAVYYCAAEITDSYPGSPRRRDYWGQGTQVTVSS”: the “polyreactivity (PSR sort gate)” value is listed as “low polyreactivity”.

Take “QVQLVESGGGLVQEGGSLRLSCAASGSIFDVYAMGWYRQAPGKERELVAAISSSGSTYYADSVKGRFTISRDNAKNTVYLQMNSLKPEDTAVYYCASDQADDDDYYYWGQGNQVTVSS”: the “polyreactivity (PSR sort gate)” value is listed as “low polyreactivity”. As to “QVQLVESGGGLVQAGGSLRLSCAASGFISGGNAMGWYRQAPGKEREFVAAIDNTGSTYYADSVKGRFTISRDNAKNTVYLQMNSLKPEDTAVYYCNAEVSEDYVDNDYWGQGTQVTVSS”, the “polyreactivity (PSR sort gate)” value was “low polyreactivity”.

For “QVQLVESGGGLVQAGGSLRLSCAASGRTFKKYAMGWYRQAPGKERELVAAITSRVGSTSYADSVKGRFTISRDNAKNTVYLQMNSLKPEDTAVYYCAARYSVGTGYGYWGQGTQVTVSS”, the “polyreactivity (PSR sort gate)” value is given as “high polyreactivity”. As for “QVQHVESGARLVQAGGSLRLSCAASGSTFYRNTMGWYRQAPGTERELVAAISSGGSTNYADSVTGRFTISRDNAKNTVYLQMNSLKPEDTGVYYCAAAIRVISDGWYYYWYDYWGQGTPVTVSS”, the “polyreactivity (PSR sort gate)” value was “high polyreactivity”. In the case of “QVQLVESGGGLVQAGGSLRLSCAASGSTLSRYTMGWSRQAPGKERELVAAIRSSGGSTYYADSVKGRFTISRDNAKNTVYLQMNSLKPEDTAVYYCARTQQRTTEREHWIRYYYWGQGTQVTVSS” it was “low polyreactivity”. Regarding “QVQLVESGGGLVQAGGSLRLSCVASGRTFGNNAMGWYRQAHGKERELVAAITSGGSTNYADSVKGCFTISRDNAKNTVYLQMNSLKPEDTAVYYCAAKQYRAGGGYWGQGSQVTVSS”, the “polyreactivity (PSR sort gate)” value is reported as “high polyreactivity”. Regarding “QVQLVESGGGLVQAGGSLRLSWAASGFIFVSNAMGWYRQAPGKERELVAAITSGDNTKYADSVKGRFTISRDNAKNTVYLQMNSLKPEDTAVYYCAVTNRYQGAGYYWGQGTQVTVSS”, the “polyreactivity (PSR sort gate)” value is on record as “low polyreactivity”. Consider “QVQLVESGGGLVQAGGSLRLSCAASGRIFRRNVMGWYRQAPGKEREMLAAIRGTGSTTYADSVKGRFTISRDNEKNTVYLQMNSLKPEDTAVYYCAAVQQGNHGFRYYYWGQGTQVTVSS”, for which the “polyreactivity (PSR sort gate)” value is “high polyreactivity”.

On to “QVQLVESGGGLVQAGGSLRLSCAASGSIFYRYAMGWYRQAPGKERELVATISSGGRTYYADSVKGRFTISRDNAKNTVYLQMNSLKPEVTAVYYCAAKRFSSPYWEYYWGQGTQVTVSS”, for which the “polyreactivity (PSR sort gate)” value is “high polyreactivity”.

As for “QVQLVESGGGLVQAGGSLRLSCAASGFIFYSYAMGWYRQAPGKERELVAAISFSGSRTYYADSVKGRFTISRDNAKNTVYLQMNSLKPEDTAVYYCAAYYIASRSTRYYYWGQGTQVTVSS”, the “polyreactivity (PSR sort gate)” value is “high polyreactivity”. Consider “QVPLVESGGGVVQAGGSLRLSCAASGSIFNVNAMGWYRPAPGKERELVAAISSGGDTYYADSLKGRFTISRDNAKNTVYLQMNSLKPEDTAVYYCAAEIYTAYYEFDYWGQGTQVTVSS”, for which the “polyreactivity (PSR sort gate)” value was “low polyreactivity”.

On to “QVQLVESGGGFVQAGGSLRISCAASGSTIGGNGKGWYRQAPGKEREIVATITWPSGSTYYADSVKGRFTISRDNAKNTVYLQMKSLKPEDTAVYYCAKNTSSRRNPWYYYWGQGTQVTVSS”, for which the “polyreactivity (PSR sort gate)” value is “high polyreactivity”. In the case of “QVQLVESGGGLVQAGGSLRLSCAASGRIFPAYAMGWYRQAPGKERELVASIRRGGITYADSVKGRFTISRDNAKNTVYLLMNSLKPEDTAVYYCNAYVNRATAGRYYSWGQGTQVTVSS” it was “low polyreactivity”; in that of “QVQLVESGGGLVQAGGSLRLSCAPSGSIFVYYAMGWYIQAPGKERELVAAITTSGGSTYYADSVKGRFTISRDNAKNTVYLQMNSLKPEDTAVYYCAAELLAWYWSFSVPCPYDYWGQGTQVTVSS”, “low polyreactivity”. In the case of “QVQLVESGGGLVQAGGSLRLSCAASGRILTYYAMGWYRQAPGKERELVASISSNGGTYYADSVKGRFTISRDNAKNTVYLQMNSLKPEDTAVYYCNAKRVARYQYGASYNYWGQGTQVTVSS” it was “high polyreactivity”; in that of “QVQLVESGGGLVQAGGRLRLSCAASGRIFGWIAMGWSRQAPGKDRELVAAISADGNTYSADSVKGRFTISRDNAKNTVYVQKNSLKPEDTAVSYCAAESWSADFSWYDYWGQGTQVTVSS”, “high polyreactivity”.

Take “QVQLVESGGGLVQAGGSLRLSCAASRSTFVLYDMGWYRPAPGKERELVAAISRSGDSTYYADSVKGRYTISRDNAKNTVYLQMNSLKPEDTAVYYCAAKRRISTGMDYWGQGTQGTVSS”: the “polyreactivity (PSR sort gate)” value is “high polyreactivity”.

For “QVQLVESGGRLVQAGGSLRLSCAASGRTFRGYAMGWYRQAPGKEREWVAAISSGGSTYYADSVKGRFTISRDNAKNTVYFQMNSLKPEDTAVSYCDRAVGNYRTLEFDYWGQGTQVTVSS”, the “polyreactivity (PSR sort gate)” value is on record as “low polyreactivity”.

As for “QVQLVESGGGLVQAGGSLRLSCAASGRIFEHYPMGWYRPAPGKERELVAAISRSGGRTYYADSVKGRFTISRDNAKNTVTLQMNSVKPEDTEVDYCAAVGVYWYVYPHEYDYWGQGSQVTVSS”, the “polyreactivity (PSR sort gate)” value is “high polyreactivity”. As for “QVQLGESGGGLVQAGGSLRLCCAASGRIFVRYTRGWYRQAPGKERELVAAIDQRGGSTYYADSVKGRFTISRDNANNTVSLQLNSLKPEDTAVYYCARVASRTRPGYGYWGQGTQVTVSS”, the “polyreactivity (PSR sort gate)” value was “low polyreactivity”.

As for “QVQLVESGGGLVQAGGILRLSCAASGIIFVSYDRGWYRQAPGKERELVAAINRGGRTYYADSVKGRFTISRDNAKNTVYLQMNSLKPEDTAVYYCAAQFHFRPFSWTYDYWGQGTQVTVSS”, the “polyreactivity (PSR sort gate)” value is given as “high polyreactivity”.

Take “QVQLVESGGGLVQAGGSLRLSCAASGRTFDDYAMGRYRQAPGKERELVAVITDNGGGTNYADSVKGRFTISRDNAKNTVYLQMNSLKPEDTAVYYCNAASDDFYPGRRTYGRDYWGQGTQVTVSS”: the “polyreactivity (PSR sort gate)” value is reported as “low polyreactivity”. As for “QVQLVESGGGLVQAGGSLRLSCAASGRTLYYYAMGWYRQEPGKERELVAAISWSGGRTYYADSVKGRFTISRDNAKNTVYLQMNSLKAEDTAVYYCAAQYISRGYTVDYWGQGTQVTVSS”, the “polyreactivity (PSR sort gate)” value is “high polyreactivity”.

(Values after the nanobody polyreactivity screen of Harvey et al. (2022).)
